According to US20200317768A1 (published 2020):

T1: Cynomolgus monkey latent myostatin (cynomolgus monkey, UniProt Q95J86 25-266; Q95J86 267-375)
T1 construct: Latent form = complex of two propeptides and the mature dimer; also called Cyno latent myostatin
T1 sequence 1: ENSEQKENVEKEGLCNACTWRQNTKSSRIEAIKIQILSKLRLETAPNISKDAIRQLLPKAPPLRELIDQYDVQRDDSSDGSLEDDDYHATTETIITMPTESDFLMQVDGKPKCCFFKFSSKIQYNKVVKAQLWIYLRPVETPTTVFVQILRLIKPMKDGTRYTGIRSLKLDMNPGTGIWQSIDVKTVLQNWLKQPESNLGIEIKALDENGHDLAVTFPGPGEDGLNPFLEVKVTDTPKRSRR
T1 sequence 2: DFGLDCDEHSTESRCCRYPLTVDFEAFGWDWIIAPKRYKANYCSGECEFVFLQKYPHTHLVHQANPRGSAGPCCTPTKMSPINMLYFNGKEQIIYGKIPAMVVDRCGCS

T2: Mouse latent myostatin (mouse, UniProt O08689 26-267; O08689 268-376)
T2 construct: Latent form = complex of two propeptides and the mature dimer
T2 sequence 1: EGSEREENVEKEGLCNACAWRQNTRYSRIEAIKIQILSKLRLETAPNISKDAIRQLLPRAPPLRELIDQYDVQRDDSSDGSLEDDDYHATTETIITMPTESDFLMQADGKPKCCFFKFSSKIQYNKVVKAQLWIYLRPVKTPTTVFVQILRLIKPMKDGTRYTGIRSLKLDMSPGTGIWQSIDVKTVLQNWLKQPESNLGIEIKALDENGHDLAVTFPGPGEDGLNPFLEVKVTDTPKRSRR
T2 sequence 2: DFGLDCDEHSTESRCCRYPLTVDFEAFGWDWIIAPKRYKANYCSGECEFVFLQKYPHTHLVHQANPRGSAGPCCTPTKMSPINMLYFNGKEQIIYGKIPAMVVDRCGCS

T3: Human latent myostatin (human, UniProt O14793 25-266; O14793 267-375)
T3 construct: also called human myostatin latent form
T3 sequence 1: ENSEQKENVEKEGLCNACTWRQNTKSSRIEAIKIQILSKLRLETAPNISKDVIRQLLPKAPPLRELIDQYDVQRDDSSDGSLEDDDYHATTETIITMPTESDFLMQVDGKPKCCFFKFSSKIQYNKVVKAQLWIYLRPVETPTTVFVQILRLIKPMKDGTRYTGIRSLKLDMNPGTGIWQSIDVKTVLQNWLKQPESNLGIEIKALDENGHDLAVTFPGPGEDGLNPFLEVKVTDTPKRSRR
T3 sequence 2: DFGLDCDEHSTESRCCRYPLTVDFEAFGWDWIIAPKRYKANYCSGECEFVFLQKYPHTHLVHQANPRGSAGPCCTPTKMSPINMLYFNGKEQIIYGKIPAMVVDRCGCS

T4: human FcγRIIaH extracellular domain, C-terminal His-tag (human, UniProt P12318 34-217)
T4 construct: also called human FcγRIIa (type H); FcgRIIaH
T4 sequence: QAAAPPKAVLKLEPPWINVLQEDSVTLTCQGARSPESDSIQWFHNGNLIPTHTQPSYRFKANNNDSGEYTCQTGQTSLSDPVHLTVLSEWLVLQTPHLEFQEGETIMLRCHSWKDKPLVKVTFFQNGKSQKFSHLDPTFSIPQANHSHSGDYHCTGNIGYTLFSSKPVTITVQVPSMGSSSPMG

T5: cynomolgus monkey FcγRIIIaS extracellular domain, C-terminal His-tag (cynomolgus monkey, UniProt Q8SPW2 21-206 at identity 1.00))
T5 construct: also called cyno FcγRIIIaS; FcgRIIIaS
T5 chain: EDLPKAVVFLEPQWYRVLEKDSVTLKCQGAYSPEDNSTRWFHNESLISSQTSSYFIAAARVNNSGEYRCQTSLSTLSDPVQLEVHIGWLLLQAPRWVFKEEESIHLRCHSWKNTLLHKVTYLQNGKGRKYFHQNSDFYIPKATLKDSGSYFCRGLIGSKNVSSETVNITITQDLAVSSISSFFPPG


Assays:
[1] = target: T1, Cynomolgus monkey latent myostatin; assay: SPR (BIACORE T200) 37C, pH 5.8, antibody captured by ProA/G
[2] = target: T2, Mouse latent myostatin; assay: as above
[3] = target: T3, Human latent myostatin; assay: as above
[4] = target: T4, human FcγRIIaH extracellular domain, …; assay: SPR (BIACORE) 25C, antibody captured, FcgR as analyte; weak binding, KD by Equation 2
Experimental: (§1) The kinetic analysis of interactions between these antibodies and FcγR was carried out using BIACORE® T200 or BIACORE® 4000 (GE Healthcare). HBS-EP+ (GE Healthcare) was used as the running buffer, and the measurement temperature was set to 25° C. A chip produced by immobilizing Protein A. Protein A/G or mouse anti-human IgG kappa light chain (BD Biosciences) onto a Series S Sensor Chip CM4 or CM5 (GE Healthcare) by the amine-coupling method was used. […] After the measurement, the antibody captured on the chip was washed off by allowing reaction with 10 mM glycine-HCl, pH1.5 and 25 mM NaOH so that the chip was regenerated and used repeatedly. The sensorgrams obtained as measurement results were analyzed by the 1:1 Langmuir binding model using the BIACORE® Evaluation Software to calculate the binding rate constant ka (L/mol/s) and dissociation rate constant kd (l/s), and the dissociation constant KD (mol/L) was calculated from these values. […] Regarding such interactions, KD values were calculated using the following 1:1 binding model described in BIACORE® T100 Software Handbook BR1006-48 Edition AE.
(§2) The behavior of interacting molecules according to the 1:1 binding model on BIACORE® can be described by Equation 1: Req=C·R max/(KD+C)+RI, wherein, Req is a plot of steady-state binding levels to analyte concentration. […]

[5] = target: T5, cynomolgus monkey FcγRIIIaS …; assay: as above
Experimental: as §1, §2

Kd [1]	Kd [2]	Kd [3]	Kd [4]	Kd [5]	Binder
25.9 nM	22.6 nM	34 nM	–	–	MS_M103205H795-SG1/M103202L889-SK1 (antibody, human IgG1, kappa, also called MS1032LO06-SG1) heavy: not shown light: DIVMTQSPATLSLSPGERATLSCTSSQSVYHANWLSWFQQKPGQPPKLLIYWASTLAYGVPSRFSGSGSGTDFTLTISSLQPEDAATYYCAGGYGGGRYAFGQGTKVEIKRTVAAPSVFIFPPSDEQLKSGTASVVCLLNNFYPREAKVQWKVDNALQSGNSQESVTEQDSKDSTYSLSSTLTLSKADYEKHKVYACEVTHQGLSSPVTKSFNRGEC
–	–	–	75000 nM	100000 nM	M103205H795-MY009/M103202L889-SK1 (antibody, human IgG1, kappa, CH MY009 = SG1 with P238D (EU numbering); also called MS1032LO06-MY009) heavy: not shown light: DIVMTQSPATLSLSPGERATLSCTSSQSVYHANWLSWFQQKPGQPPKLLIYWASTLAYGVPSRFSGSGSGTDFTLTISSLQPEDAATYYCAGGYGGGRYAFGQGTKVEIKRTVAAPSVFIFPPSDEQLKSGTASVVCLLNNFYPREAKVQWKVDNALQSGNSQESVTEQDSKDSTYSLSSTLTLSKADYEKHKVYACEVTHQGLSSPVTKSFNRGEC
